According to the supplement of paper PMC10724198:
± gives the standard deviation of the averaged measurements.

Experiments:
Saccharomyces cerevisiae [1] = test: protein stability index of tFT-peptide fusion (C-terminal peptide) (PSI (0-1 scale)); higher = more stable (slower turnover); settings: genetic background: wild type; temperature: 30 C
Saccharomyces cerevisiae [2] = test: as above
Protocol: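 MPS profiling in S. cerevisiae of the tFT-X12 degron library: putative degron peptides plus stable controls, 12 aa, fused to the C-terminus of a sfGFP-mCherry timer. Cells are FACS-sorted into 8 mCherry/sfGFP bins and deep-sequenced. PSI runs from 0 (unstable) to 1 (stable). Backgrounds are wild type, das1Δ and doa10Δ at 30 °C, and wild type, das1Δ, cdc34-1 and cdc53-1 at 37 °C; 2-3 technical replicates each.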

[3] = genetic background: cdc34-1, temperature: 37 C
[4] = genetic background: cdc53-1, temperature: 37 C
[5] = genetic background: das1 deletion, temperature: 30 C
[6] = genetic background: das1 deletion, temperature: 37 C
[7] = genetic background: doa10 deletion, temperature: 30 C
[8] = genetic background: wild type, temperature: 30 C
[9] = genetic background: wild type, temperature: 37 C
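Further: PSI is a weighted mean of sequencing reads over stability bins, variants kept only with over 10 reads, mCherry proximal and sfGFP distal, peptide attached via GGGS linker.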

## GHSALWQVPRLM
Saccharomyces cerevisiae [1]
  protein stability index: 0.474 ± 0.015
Saccharomyces cerevisiae [2]; [3]
  protein stability index: 0.697 ± 0.053
Saccharomyces cerevisiae [2]; [4]
  protein stability index: 0.733 ± 0.014
Saccharomyces cerevisiae [2]; [5]
  protein stability index: 0.65 ± 0.048
Saccharomyces cerevisiae [2]; [6]
  protein stability index: 0.7535 ± 0.0069
Saccharomyces cerevisiae [2]; [7]
  protein stability index: 0.26 ± 0.013
Saccharomyces cerevisiae [2]; [8]
  protein stability index: 0.29 ± 0.0041
Saccharomyces cerevisiae [2]; [9]
  protein stability index: 0.574 ± 0.023

## GLCGVVVGCWVR
Saccharomyces cerevisiae [1]
  protein stability index: 0.397 ± 0.014
Saccharomyces cerevisiae [2]; [3]
  protein stability index: 0.395 ± 0.017
Saccharomyces cerevisiae [2]; [4]
  protein stability index: 0.417 ± 0.017
Saccharomyces cerevisiae [2]; [5]
  protein stability index: 0.286 ± 0.027
Saccharomyces cerevisiae [2]; [6]
  protein stability index: 0.484 ± 0.016
Saccharomyces cerevisiae [2]; [7]
  protein stability index: 0.293 ± 0.011
Saccharomyces cerevisiae [2]; [8]
  protein stability index: 0.283 ± 0.021
Saccharomyces cerevisiae [2]; [9]
  protein stability index: 0.4657 ± 0.0044

## GLDLLTKFSKEC
Saccharomyces cerevisiae [1]
  protein stability index: 0.465 ± 0.034
Saccharomyces cerevisiae [2]; [3]
  protein stability index: 0.678 ± 0.049
Saccharomyces cerevisiae [2]; [4]
  protein stability index: 0.734 ± 0.036
Saccharomyces cerevisiae [2]; [5]
  protein stability index: 0.617 ± 0.02
Saccharomyces cerevisiae [2]; [6]
  protein stability index: 0.741 ± 0.015
Saccharomyces cerevisiae [2]; [7]
  protein stability index: 0.291 ± 0.027
Saccharomyces cerevisiae [2]; [8]
  protein stability index: 0.33 ± 0.015
Saccharomyces cerevisiae [2]; [9]
  protein stability index: 0.585 ± 0.011

## GLFFLCLLSMCF
Saccharomyces cerevisiae [1]
  protein stability index: 0.384 ± 0.061
Saccharomyces cerevisiae [2]; [3]
  protein stability index: 0.34 ± 0.012
Saccharomyces cerevisiae [2]; [4]
  protein stability index: 0.303 ± 0.021
Saccharomyces cerevisiae [2]; [5]
  protein stability index: 0.306 ± 0.029
Saccharomyces cerevisiae [2]; [6]
  protein stability index: 0.423 ± 0.023
Saccharomyces cerevisiae [2]; [7]
  protein stability index: 0.336 ± 0.014
Saccharomyces cerevisiae [2]; [8]
  protein stability index: 0.29 ± 0.029
Saccharomyces cerevisiae [2]; [9]
  protein stability index: 0.396 ± 0.0071

## GLNKGKYIKLYT
Saccharomyces cerevisiae [1]
  protein stability index: 0.558 ± 0.089
Saccharomyces cerevisiae [2]; [3]
  protein stability index: 0.68 ± 0.021
Saccharomyces cerevisiae [2]; [4]
  protein stability index: 0.756 ± 0.017
Saccharomyces cerevisiae [2]; [5]
  protein stability index: 0.635 ± 0.035
Saccharomyces cerevisiae [2]; [6]
  protein stability index: 0.733 ± 0.08
Saccharomyces cerevisiae [2]; [7]
  protein stability index: 0.4605 ± 0.0033
Saccharomyces cerevisiae [2]; [8]
  protein stability index: 0.486 ± 0.0097
Saccharomyces cerevisiae [2]; [9]
  protein stability index: 0.641 ± 0.034

## GLSVLLTCIHFV
Saccharomyces cerevisiae [1]
  protein stability index: 0.256 ± 0.0041
Saccharomyces cerevisiae [2]; [3]
  protein stability index: 0.537 ± 0.031
Saccharomyces cerevisiae [2]; [4]
  protein stability index: 0.65 ± 0.042
Saccharomyces cerevisiae [2]; [5]
  protein stability index: 0.482 ± 0.013
Saccharomyces cerevisiae [2]; [6]
  protein stability index: 0.598 ± 0.01
Saccharomyces cerevisiae [2]; [7]
  protein stability index: 0.164 ± 0.023
Saccharomyces cerevisiae [2]; [8]
  protein stability index: 0.176 ± 0.026
Saccharomyces cerevisiae [2]; [9]
  protein stability index: 0.333 ± 0.014

## GNRDLVNTSVEG
Saccharomyces cerevisiae [1]
  protein stability index: 0.547 ± 0.17
Saccharomyces cerevisiae [2]; [3]
  protein stability index: 0.679 ± 0.029
Saccharomyces cerevisiae [2]; [4]
  protein stability index: 0.721 ± 0.011
Saccharomyces cerevisiae [2]; [5]
  protein stability index: 0.619 ± 0.045
Saccharomyces cerevisiae [2]; [6]
  protein stability index: 0.715 ± 0.051
Saccharomyces cerevisiae [2]; [7]
  protein stability index: 0.6331 ± 0.006
Saccharomyces cerevisiae [2]; [8]
  protein stability index: 0.633 ± 0.033
Saccharomyces cerevisiae [2]; [9]
  protein stability index: 0.6989 ± 0.0025

## GPVRSPPSPTPR
Saccharomyces cerevisiae [1]
  protein stability index: 0.727 ± 0.05
Saccharomyces cerevisiae [2]; [3]
  protein stability index: 0.674 ± 0.03
Saccharomyces cerevisiae [2]; [4]
  protein stability index: 0.737 ± 0.0096
Saccharomyces cerevisiae [2]; [5]
  protein stability index: 0.682 ± 0.015
Saccharomyces cerevisiae [2]; [6]
  protein stability index: 0.73559 ± 0.00023
Saccharomyces cerevisiae [2]; [7]
  protein stability index: 0.674 ± 0.024
Saccharomyces cerevisiae [2]; [8]
  protein stability index: 0.66 ± 0.027
Saccharomyces cerevisiae [2]; [9]
  protein stability index: 0.698 ± 0.014

## GQFVISVRFLYE
Saccharomyces cerevisiae [1]
  protein stability index: 0.515 ± 0.068
Saccharomyces cerevisiae [2]; [3]
  protein stability index: 0.454 ± 0.045
Saccharomyces cerevisiae [2]; [4]
  protein stability index: 0.503 ± 0.044
Saccharomyces cerevisiae [2]; [5]
  protein stability index: 0.412 ± 0.024
Saccharomyces cerevisiae [2]; [6]
  protein stability index: 0.5374 ± 0.0031
Saccharomyces cerevisiae [2]; [7]
  protein stability index: 0.389 ± 0.0083
Saccharomyces cerevisiae [2]; [8]
  protein stability index: 0.417 ± 0.024
Saccharomyces cerevisiae [2]; [9]
  protein stability index: 0.516 ± 0.011

## GRGVRLRVRLLL
Saccharomyces cerevisiae [1]
  protein stability index: 0.292 ± 0.1
Saccharomyces cerevisiae [2]; [3]
  protein stability index: 0.664 ± 0.023
Saccharomyces cerevisiae [2]; [4]
  protein stability index: 0.73 ± 0.031
Saccharomyces cerevisiae [2]; [5]
  protein stability index: 0.606 ± 0.022
Saccharomyces cerevisiae [2]; [6]
  protein stability index: 0.7 ± 0.019
Saccharomyces cerevisiae [2]; [7]
  protein stability index: 0.185 ± 0.014
Saccharomyces cerevisiae [2]; [8]
  protein stability index: 0.217 ± 0.006
Saccharomyces cerevisiae [2]; [9]
  protein stability index: 0.43 ± 0.04

## GRVETIEFLFLR
Saccharomyces cerevisiae [1]
  protein stability index: 0.464 ± 0.025
Saccharomyces cerevisiae [2]; [3]
  protein stability index: 0.455 ± 0.0049
Saccharomyces cerevisiae [2]; [4]
  protein stability index: 0.4335 ± 0.0015
Saccharomyces cerevisiae [2]; [5]
  protein stability index: 0.368 ± 0.038
Saccharomyces cerevisiae [2]; [6]
  protein stability index: 0.525 ± 0.0074
Saccharomyces cerevisiae [2]; [7]
  protein stability index: 0.656 ± 0.012
Saccharomyces cerevisiae [2]; [8]
  protein stability index: 0.394 ± 0.044
Saccharomyces cerevisiae [2]; [9]
  protein stability index: 0.508 ± 0.022

## GRWAFFTWLRWS
Saccharomyces cerevisiae [1]
  protein stability index: 0.261 ± 0.014
Saccharomyces cerevisiae [2]; [3]
  protein stability index: 0.553 ± 0.016
Saccharomyces cerevisiae [2]; [4]
  protein stability index: 0.674 ± 0.016
Saccharomyces cerevisiae [2]; [5]
  protein stability index: 0.62 ± 0.047
Saccharomyces cerevisiae [2]; [6]
  protein stability index: 0.6825 ± 0.0042
Saccharomyces cerevisiae [2]; [7]
  protein stability index: 0.175 ± 0.0041
Saccharomyces cerevisiae [2]; [8]
  protein stability index: 0.177 ± 0.025
Saccharomyces cerevisiae [2]; [9]
  protein stability index: 0.269 ± 0.047

## GSDGVGGTVLYA
Saccharomyces cerevisiae [1]
  protein stability index: 0.687 ± 0.037
Saccharomyces cerevisiae [2]; [3]
  protein stability index: 0.685 ± 0.061
Saccharomyces cerevisiae [2]; [4]
  protein stability index: 0.755 ± 0.014
Saccharomyces cerevisiae [2]; [5]
  protein stability index: 0.634 ± 0.021
Saccharomyces cerevisiae [2]; [6]
  protein stability index: 0.729 ± 0.015
Saccharomyces cerevisiae [2]; [7]
  protein stability index: 0.638 ± 0.013
Saccharomyces cerevisiae [2]; [8]
  protein stability index: 0.666 ± 0.023
Saccharomyces cerevisiae [2]; [9]
  protein stability index: 0.728 ± 0.035

## GSLVLSCLMSRA
Saccharomyces cerevisiae [1]
  protein stability index: 0.4872 ± 0.00045
Saccharomyces cerevisiae [2]; [3]
  protein stability index: 0.558 ± 0.04
Saccharomyces cerevisiae [2]; [4]
  protein stability index: 0.603 ± 0.018
Saccharomyces cerevisiae [2]; [5]
  protein stability index: 0.42 ± 0.034
Saccharomyces cerevisiae [2]; [6]
  protein stability index: 0.573 ± 0.0029
Saccharomyces cerevisiae [2]; [7]
  protein stability index: 0.431 ± 0.037
Saccharomyces cerevisiae [2]; [8]
  protein stability index: 0.438 ± 0.012
Saccharomyces cerevisiae [2]; [9]
  protein stability index: 0.537 ± 0.02

## GTIFLIRVLLFG
Saccharomyces cerevisiae [1]
  protein stability index: 0.284 ± 0.028
Saccharomyces cerevisiae [2]; [3]
  protein stability index: 0.154 ± 0.0049
Saccharomyces cerevisiae [2]; [4]
  protein stability index: 0.284 ± 0.026
Saccharomyces cerevisiae [2]; [5]
  protein stability index: 0.222 ± 0.024
Saccharomyces cerevisiae [2]; [6]
  protein stability index: 0.387 ± 0.029
Saccharomyces cerevisiae [2]; [7]
  protein stability index: 0.171 ± 0.015
Saccharomyces cerevisiae [2]; [8]
  protein stability index: 0.213 ± 0.023
Saccharomyces cerevisiae [2]; [9]
  protein stability index: 0.357 ± 0.069

## GVARALFLWKAV
Saccharomyces cerevisiae [1]
  protein stability index: 0.379 ± 0.041
Saccharomyces cerevisiae [2]; [3]
  protein stability index: 0.64 ± 0.032
Saccharomyces cerevisiae [2]; [4]
  protein stability index: 0.709 ± 0.018
Saccharomyces cerevisiae [2]; [5]
  protein stability index: 0.65 ± 0.022
Saccharomyces cerevisiae [2]; [6]
  protein stability index: 0.7486 ± 0.0021
Saccharomyces cerevisiae [2]; [7]
  protein stability index: 0.286 ± 0.0013
Saccharomyces cerevisiae [2]; [8]
  protein stability index: 0.317 ± 0.03
Saccharomyces cerevisiae [2]; [9]
  protein stability index: 0.464 ± 0.0088

## GVLTVVLQVGVV
Saccharomyces cerevisiae [1]
  protein stability index: 0.393 ± 0.0095
Saccharomyces cerevisiae [2]; [3]
  protein stability index: 0.299 ± 0.033
Saccharomyces cerevisiae [2]; [4]
  protein stability index: 0.378 ± 0.053
Saccharomyces cerevisiae [2]; [5]
  protein stability index: 0.309 ± 0.038
Saccharomyces cerevisiae [2]; [6]
  protein stability index: 0.428 ± 0.019
Saccharomyces cerevisiae [2]; [7]
  protein stability index: 0.282 ± 0.011
Saccharomyces cerevisiae [2]; [8]
  protein stability index: 0.304 ± 0.02
Saccharomyces cerevisiae [2]; [9]
  protein stability index: 0.407 ± 0.0063

## GVMICLDLLLSV
Saccharomyces cerevisiae [1]
  protein stability index: 0.468 ± 0.0081
Saccharomyces cerevisiae [2]; [3]
  protein stability index: 0.482 ± 0.011
Saccharomyces cerevisiae [2]; [4]
  protein stability index: 0.521 ± 0.021
Saccharomyces cerevisiae [2]; [5]
  protein stability index: 0.377 ± 0.025
Saccharomyces cerevisiae [2]; [6]
  protein stability index: 0.539 ± 0.014
Saccharomyces cerevisiae [2]; [7]
  protein stability index: 0.361 ± 0.018
Saccharomyces cerevisiae [2]; [8]
  protein stability index: 0.395 ± 0.017
Saccharomyces cerevisiae [2]; [9]
  protein stability index: 0.528 ± 0.0073

## GVVCCGFFFLVV
Saccharomyces cerevisiae [1]
  protein stability index: 0.464 ± 0.016
Saccharomyces cerevisiae [2]; [3]
  protein stability index: 0.475 ± 0.012
Saccharomyces cerevisiae [2]; [4]
  protein stability index: 0.525 ± 0.028
Saccharomyces cerevisiae [2]; [5]
  protein stability index: 0.401 ± 0.024
Saccharomyces cerevisiae [2]; [6]
  protein stability index: 0.57 ± 0.018
Saccharomyces cerevisiae [2]; [7]
  protein stability index: 0.363 ± 0.0058
Saccharomyces cerevisiae [2]; [8]
  protein stability index: 0.41 ± 0.04
Saccharomyces cerevisiae [2]; [9]
  protein stability index: 0.528 ± 0.055

## GWCLLRVLVLVW
Saccharomyces cerevisiae [1]
  protein stability index: 0.175 ± 0.022
Saccharomyces cerevisiae [2]; [3]
  protein stability index: 0.0502 ± 0.035
Saccharomyces cerevisiae [2]; [4]
  protein stability index: 0.043 ± 0.0082
Saccharomyces cerevisiae [2]; [5]
  protein stability index: 0.0937 ± 0.023
Saccharomyces cerevisiae [2]; [6]
  protein stability index: 0.107 ± 0.0087
Saccharomyces cerevisiae [2]; [7]
  protein stability index: 0.104 ± 0.024
Saccharomyces cerevisiae [2]; [8]
  protein stability index: 0.0811 ± 0.02
Saccharomyces cerevisiae [2]; [9]
  protein stability index: 0.0921 ± 0.035
